Measurements taken from the PETadex activity labels (doi:10.1038/s41467-023-40233-w).

Substrate: pcPET (post-consumer)
Assay: Proxy for plastic degradation [Released monomer concentration (HPLC/LC-MS) (TPA+MHET+BHET)]
Conditions: pH 9

Protein	Proxy for plastic degradation (40 °C, 24 h) [µM]	Proxy for plastic degradation (60 °C, 6 h) [µM]
unnamed (protein) MLSFLRSTGRPERRRASLPALLLFTAALVASGLTAAPAAQAADNPYQRGPDPTNASIEAATGPFAVGTQPIVGASGFGGGQIYYPTDTSQTYGAVVIVPGFISVWAQLNWLGPRLASQGFVVIGIETSVITDLPDPRGDQALAALDWATTRSPVASRIDRTRLAAAGWSMGGGGLRRAALQRPSLKAIVGMAPWNGERNWSAVTVPTLFFGGSSDAVASPNDHAKPFYNSITRAEKDYIELRNADHFFPTSANTTMAKYFISWLKRWVDNDTRYRQFLCPGPSTGLFAPVSASMNTCPF	270	–
unnamed (protein) MLSFLRSTGRPERRRASLPALLLFTAALVASGLTAAPAAQAADNPYQRGPDPTNASIEAATGPFAVGTQPIVGASGFGGGQIYYPTDTSQTYGAVVIVPGFISVWAQLNWLGPRLASQGFVVIGIETSVITDLPDPRGDQALAALDWATTRSPVRSRIDRTRLAAAGWSMGGGGLRRAALQRPSLKAIVGMAPWNGERNWSAVTVPTLFFGGSSDAVASPNDHAKPFYNSITRAEKDYIELRNADHFFPTSANTTMAKYFISWLKRWVDNDTRYTQFLCPGPSTGLFAPVSASMNTCPF	870	–
unnamed (protein) MLSFLRSTGRPERRRASLPALLLFTAALVASGLTAAPAAQAADNPYQRGPDPTNASIEAATGPFAVGTQPIVGASGFGGGQIYYPTDTSQTYGAVVIVPGFISVWAQLNWLGPRLASQGFVVIGIETSVITDLPDPRGDQALAALDWATTRSPVASRIDRTRLAAAGWSMGGGGLRRAALQRPSLKAIVGMAPWNGERNWSAVTVPTLFFGGSSDAVASPNDHAKPFYNSITRAEKDYIELRNADHFFPTSANTTMAKYFISWLKRWVDNDTRYTQFLCPGPSTGLFAPVSASMNTCPF	–	60
